According to patent US20240400677A1 (ELECTRA THERAPEUTICS, published 2024):

T1: cynomolgus monkey SIRPγ on CHO cells (cynomolgus monkey, UniProt Q9P1W8 29-386 (human entry))
T1 construct: also called Cyno SIRPγ CHO
T1 chain: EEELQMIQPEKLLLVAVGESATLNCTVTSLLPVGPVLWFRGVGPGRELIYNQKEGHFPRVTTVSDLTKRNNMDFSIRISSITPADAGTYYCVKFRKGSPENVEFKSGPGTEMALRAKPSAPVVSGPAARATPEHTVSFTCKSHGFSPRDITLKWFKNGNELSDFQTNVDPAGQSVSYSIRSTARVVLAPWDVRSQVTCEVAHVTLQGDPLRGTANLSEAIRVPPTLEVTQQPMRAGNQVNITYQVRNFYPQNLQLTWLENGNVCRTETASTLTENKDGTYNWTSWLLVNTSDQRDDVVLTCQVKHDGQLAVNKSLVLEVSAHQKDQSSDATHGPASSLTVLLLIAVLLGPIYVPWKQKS

T2: cynomolgus monkey SIRPα on CHO cells (cynomolgus monkey, UniProt A0A2K5VYQ9 31-507)
T2 construct: whole, on cells; also called Cyno SIRPα CHO
T2 sequence: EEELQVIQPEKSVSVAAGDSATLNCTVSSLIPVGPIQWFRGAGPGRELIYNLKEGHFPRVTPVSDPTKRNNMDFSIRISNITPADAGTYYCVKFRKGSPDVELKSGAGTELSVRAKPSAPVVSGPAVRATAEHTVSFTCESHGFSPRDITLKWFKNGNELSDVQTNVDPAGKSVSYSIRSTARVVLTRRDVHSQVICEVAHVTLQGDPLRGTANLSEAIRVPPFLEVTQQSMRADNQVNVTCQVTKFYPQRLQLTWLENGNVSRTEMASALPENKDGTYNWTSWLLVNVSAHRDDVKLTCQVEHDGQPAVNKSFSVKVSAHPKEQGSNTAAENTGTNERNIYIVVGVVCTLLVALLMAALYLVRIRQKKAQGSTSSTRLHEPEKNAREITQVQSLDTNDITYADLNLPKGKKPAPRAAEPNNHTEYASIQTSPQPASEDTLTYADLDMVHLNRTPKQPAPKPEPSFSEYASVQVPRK


Experiments:
[1] = target: T3, human SIRPβ1 on CHO cells (co-transfected with DAP12) (human, UniProt O00241 30-398); assay: flow cytometry
T3 construct: whole, on cells; co-transfected with DAP12; also called Human SIRPβ1 CHO

[2] = target: T4, human SIRPγ-His monomer protein (human, UniProt Q9P1W8 29-360); assay: BLI Octet, V5-scFv PPE captured, SIRP-His 500 nM
T4 construct: also called hSIRPγ

[3] = target: T5, human SIRPγ on stably transfected CHO cells (human, UniProt Q9P1W8 29-387); assay: flow cytometry, myc-scFv PPE
T5 construct: also called Human SIRPγ CHO
Method: (§1) Selected antibodies were tested for binding to stably transfected human SIRPγ, SIRPαV1, or SIRPβ1 (co-transfected with DAP12) Chinese hamster ovary (CHO) cells via flow cytometry. A titration of select antibodies was added to the cells and detected using a fluorescently labelled secondary anti-rat IgG antibody or anti-human IgG antibody. Graphs depict the median fluorescence intensity (MFI) at each concentration. FIGS. 5A and 5G show the binding curves of select antibodies to human SIRPγ, cynomolgus monkey SIRPγ, human SIRPα, cynomolgus monkey SIRPα, human SIRPβ1, or cynomolgus monkey SIRPβl-expressing CHO cells detected using an anti-rat IgG antibody. FIGS. 5B-5F and 5H-5L show the binding curves of select antibodies to human SIRPγ, cynomolgus monkey SIRPγ, human SIRPα, cynomolgus monkey SIRPα, human SIRPβ1, or cynomolgus monkey SIRPβ1-expressing CHO cells detected using an anti-human IgG antibody. […] For select antibodies, each myc-tagged SIRPγ scFv antibody as crude PPE was incubated with each of the SIRP-expressing cell lines stated above along with the parental CHO-K1 cell line. […] Fold change value <2.0 is considered a non-binder.

[4] = target: T1, cynomolgus monkey SIRPγ on CHO cells; assay: flow cytometry, myc-scFv PPE
Method: as §1

[5] = target: T2, cynomolgus monkey SIRPα on CHO cells; assay: flow cytometry

T3 sequence (O00241 30-398): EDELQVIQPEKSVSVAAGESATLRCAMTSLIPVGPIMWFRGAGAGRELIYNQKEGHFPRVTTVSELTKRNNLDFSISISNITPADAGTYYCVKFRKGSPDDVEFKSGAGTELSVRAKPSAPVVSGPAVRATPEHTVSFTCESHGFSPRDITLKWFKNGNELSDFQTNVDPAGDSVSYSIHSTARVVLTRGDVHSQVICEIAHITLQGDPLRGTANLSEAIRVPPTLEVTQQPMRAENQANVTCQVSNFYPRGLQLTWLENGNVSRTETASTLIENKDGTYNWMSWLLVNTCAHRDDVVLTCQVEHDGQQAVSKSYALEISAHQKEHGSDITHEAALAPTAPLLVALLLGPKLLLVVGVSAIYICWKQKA
T5 sequence (Q9P1W8 29-387 limits assumed): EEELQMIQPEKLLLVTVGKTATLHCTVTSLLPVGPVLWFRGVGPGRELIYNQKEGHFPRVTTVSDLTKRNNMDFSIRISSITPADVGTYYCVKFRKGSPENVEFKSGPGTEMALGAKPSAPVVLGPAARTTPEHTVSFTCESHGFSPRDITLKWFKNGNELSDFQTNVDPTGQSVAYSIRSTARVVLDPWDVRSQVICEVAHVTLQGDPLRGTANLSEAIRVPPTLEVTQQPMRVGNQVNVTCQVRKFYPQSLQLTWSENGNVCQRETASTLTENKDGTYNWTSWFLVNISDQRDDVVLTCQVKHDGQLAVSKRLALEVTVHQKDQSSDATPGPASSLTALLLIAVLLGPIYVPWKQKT
T4 sequence (Q9P1W8 29-360 limits assumed): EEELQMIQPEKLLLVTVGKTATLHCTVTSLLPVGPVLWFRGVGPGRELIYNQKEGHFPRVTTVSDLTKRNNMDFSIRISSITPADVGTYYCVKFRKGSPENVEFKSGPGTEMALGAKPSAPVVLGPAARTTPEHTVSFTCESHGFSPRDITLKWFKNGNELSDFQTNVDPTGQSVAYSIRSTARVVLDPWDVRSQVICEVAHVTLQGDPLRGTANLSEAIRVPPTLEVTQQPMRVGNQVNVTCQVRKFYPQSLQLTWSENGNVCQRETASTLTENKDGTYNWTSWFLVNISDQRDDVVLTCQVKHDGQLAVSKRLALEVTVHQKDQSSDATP

| Binder | binding result [1] | kdis [2] [s⁻¹] | MFI fold change over parental CHO [3] [fold] | MFI fold change over parental CHO [4] [fold] | binding result [5] |
| --- | --- | --- | --- | --- | --- |
| Antibody 14 (scFv, V domains shown, scFv in crude PPE, V5/myc-tagged) VH: QVQLVQSGAEVKKPGASVKVSCKASGYTFTSYYMHWVRQAPGQGLEWMGWVDPNNGDTGYAQKFQGRVTMTRDTSTSTVYMELSSLRSEDTAVYYCARDNWGSLDVWGKGTTVTVSS VL: DIVMTQSPLSLPVTPGEPASISCRSSQSLLHSNGYNYLDWYLQKPGQSPQLLIYAASTLQSGVPDRFSGSGSGTDFTLKISRVEAEDVGVYYCMQGLQTLYSFGQGTKLEIK | no binding (tested: fold change <2.0) | 0.001 to 0.01 | 19.6 | 18 | – |
| Antibody 9 (scFv, V domains shown, scFv in crude PPE, V5/myc-tagged) VH: QVQLVQSGAEVKKPGASVKVSCKASGYSFSDYYMHWVRQAPGQGLEWMGWMSPNSGNTGYAQKFQGRVTMTRDTSTSTVYMELSSLRSEDTAVYYCARQREEYGHYYYGMDVWGQGTMVTVSS VL: EIVMTQSPATLSVSPGERATLSCRASQSLGSTYLAWYQQKPGQAPRLLIYGASTRATGIPARFSGSGSGTEFTLTISSLQSEDFAVYYCQQYYSSPPTFGQGTKVEIK | no binding (tested: fold change <2.0) | 0.001 to 0.01 | 10.4 | 6.87 | no binding (tested: fold change <2.0) |
| Antibody 20 (scFv, V domains shown, scFv in crude PPE, V5/myc-tagged) VH: QVQLVQSGAEVKKPGASVKVSCKASGYTFTSYDINWVRQAPGQGLEWMGWMNPNSGNTGYAQKFQGRVTMTRDTSTSTVYMELSSLRSEDTAVYYCARESYAYCSSTSCYDAFDIWGQGTMVTVSS VL: not shown | no binding (tested: fold change <2.0) | < 0.001 | 8.87 | 10.5 | no binding (tested: fold change <2.0) |
| Antibody 21 (scFv, V domains shown, scFv in crude PPE, V5/myc-tagged) VH: EVQLLESGGGLVQPGGSLRLSCAASGFTLGSYWMHWVRQAPGKGLEWVSLISWDGGSTYYADSVKGRFTISRDNSKNTLYLQMNSLRAEDTAVYYCAKGPWVGYSGYDLNYYYYGMDVWGQGTTVTVSS VL: DIQMTQSPSSLSASVGDRVTITCRASQDIRRALAWYQQKPGKAPKLLIYAASSLQSGVPSRFSGSGSGTDFTLTISSLQPEDFATYYCLQHNSYPPTFGQGTKLEIK | no binding (tested: fold change <2.0) | 0.001 to 0.01 | 51.4 | 96.1 | no binding (tested: fold change <2.0) |
| Antibody 16 (scFv, V domains shown, scFv in crude PPE, V5/myc-tagged) VH: QVQLVQSGAEVKKPGASVKVSCKASGYTFTSYYMHWVRQAPGQGLEWMGWINPNSGNAGFAQKFQGRVTMTRDTSTSTVYMELSSLRSEDTAVYYCARGPVYSYGPFDYWGQGTLVTVSS VL: DIQMTQSPSSLSASVGDRVTITCRASQGISTYLAWYQQKPGKAPKLLIYAASTLQSGVPSRFSGSGSGTDFTLTISSLQPEDFATYYCQQSHSAPITFGQGTKVEIK | no binding (tested: fold change <2.0) | – | 33 | 16.3 | no binding (tested: fold change <2.0) |
| Antibody 24 (scFv, V domains shown, scFv in crude PPE, V5/myc-tagged) VH: QVQLVQSGAEVKKPGASVKVSCKASGYTFTGYYMHWVRQAPGQGLEWMGIINPSGGSTNYAQKFQGRVTMTRDTSTSTVYMELSSLRSEDTAVYYCARGPIGYGMDVWGQGTLVTVSS VL: DIQMTQSPSSLSASVGDRVTITCRASQGIGNDLGWYQQKPGKAPKLLIYAASNLETGVPSRFSGSGSGTDFTLTISSLQPEDFATYYCLQHHSYPFTFGQGTKLEIK | no binding (tested: fold change <2.0) | > 0.01 | 11.1 | 9.85 | no binding (tested: fold change <2.0) |
| Antibody 27 (scFv, V domains shown, scFv in crude PPE, V5/myc-tagged) VH: QVQLVQSGAEVKKPGASVKVSCKASGYTFTSHDINWVRQAPGQGLEWMGWMNANNGNAGYAQKFQGRVTMTRDTSTSTVYMELSSLRSEDTAVYYCAKDLSPSSSWSTYYYYYGMDVWGQGTMVTVSS VL: DIQMTQSPSSLSASVGDRVTITCRASQSISNLLAWYQQKPGKAPKLLIYAASSLQSGVPSRFSGSGSGTDFTLTISSLQPEDFATYYCQQSYSTPYTFGQGTKLEIK | no binding (tested: fold change <2.0) | 0.001 to 0.01 | 23.2 | 5.81 | no binding (tested: fold change <2.0) |
| Antibody 29 (scFv, V domains shown, scFv in crude PPE, V5/myc-tagged) VH: QVQLVQSGAEVKKPGASVKVSCKASGGTFSSYAISWVRQAPGQGLEWMGIINPSSSSTGYAQKFQGRVTMTRDTSTSTVYMELSSLRSEDTAVYYCARAGYYDSSGYYYSPYYGMDVWGQGTTVTVSS VL: EIVMTQSPATLSVSPGERATLSCRASQSISGSYLAWYQQKPGQAPRLLIYGASTRATGIPARFSGSGSGTEFTLTISSLQSEDFAVYYCQQYGSFPFTFGPGTKVDIK | no binding (tested: fold change <2.0) | 0.001 to 0.01 | 11.4 | 13 | no binding (tested: fold change <2.0) |
| Antibody 32 (scFv, V domains shown, scFv in crude PPE, V5/myc-tagged) VH: QVQLVQSGAEVKKPGASVKVSCKASGYTFTSYYMYWVRQAPGQGLEWMGWINPNSGNTGYAQKFQGRVTMTRDTSTSTVYMELSSLRSEDTAVYYCAKDRRRGVGLAAAGTSAFDIWGQGTMVTVSS VL: DIQMTQSPSSLSASVGDRVTITCRASQSISNWLAWYQQKPGKAPKLLIYAASSLQSGVPSRFSGSGSGTDFTLTISSLQPEDFATYYCQQSYSTPYTFGQGTKLEIK | no binding (tested: fold change <2.0) | < 0.001 | 10.2 | 9.63 | no binding (tested: fold change <2.0) |
| Antibody 33 (scFv, V domains shown, scFv in crude PPE, V5/myc-tagged) VH: QVQLVQSGAEVKKPGASVKVSCKASGYTFTSYYMHWVRQAPGQGLEWMGWMNPNSDNTGYAQKFQGRVTMTRDTSTSTVYMELSSLRSEDTAVYYCARVGVGYGYYYYGMDVWGQGTTVTVSS VL: DIQMTQSPSSLSASVGDRVTITCRAGQSIGDYLNWYQQKPGKAPKLLIYAASSLQSGVPSRFSGSGSGTDFTLTISSLQPEDFATYYCQQSYSTPWTFGQGTKVEIK | no binding (tested: fold change <2.0) | 0.001 to 0.01 | 20 | 8.02 | no binding (tested: fold change <2.0) |
| Antibody 34 (scFv, V domains shown, scFv in crude PPE, V5/myc-tagged) VH: QVQLVQSGAEVKKPGASVKVSCKASGYTFSNYYMHWVRQAPGQGLEWMGWMNPNSGNTGYAQKFQGRVTMTRDTSTSTVYMELSSLRSEDTAVYYCARASMYSSSGFDYWGQGTLVTVSS VL: DIVMTQSPLSLPVTPGEPASISCRSSQSLLHSNGYNYLDWYLQKPGQSPQLLIYLASTRAPGVPDRFSGSGSGTDFTLKISRVEAEDVGVYYCMQGSHWPPSFGQGTRLEIK | no binding (tested: fold change <2.0) | 0.001 to 0.01 | 18.7 | 12 | no binding (tested: fold change <2.0) |
| Antibody 35 (scFv, V domains shown, scFv in crude PPE, V5/myc-tagged) VH: QVQLVQSGAEVKKPGASVKVSCKASGYTFTSYYIHWVRQAPGQGLEWMGTINPSGGSTSYAQKFQGRVTMTRDTSTSTVYMELSSLRSEDTAVYYCARETSRWLRDYYYGMDVWGQGTTVTVSS VL: DIVMTQSPLSLPVTPGEPASISCRSSQSLLHSNGYNYLDWYLQKPGQSPQLLIYDASSLESGVPDRFSGSGSGTDFTLKISRVEAEDVGVYYCMQGTHWPLTFGGGTKVEIK | – | 0.001 to 0.01 | 18.3 | 12.8 | no binding (tested: fold change <2.0) |
